This note sets out measurements from a protein production outcome set (Wang et al. 2014).

The data set in a line: label from the status in PepcDB records.
Take “MPAITRRALSAGLIAAVALSVLPFAAQAAEELKIGYQKTGLPVIARQQGVIEKALEAKGVKVSWVEFTAGPPLVEALNVGSINVGWTGDAPPIFGQAAGSAIVYVAALPSNGKGEAIFTKPESGIKSVADLKGKKVGVGKGTSAHNLLVAALEKNGLKLSDIDVTYLSPADAAAAFASDKIDAWAVWDPFYAIAETRYKPVTLARTSDVLDVKTYFLANRDYAKSHADTINTNVGALGEAAKWSAANRDKVAAALHEVTGVPLEAQTLAANRSEFGITRIDDKIVASQQETADRFYRLGLIPKQISIKDAVWSGATN”: the protein production result is listed as “failed”. “MKIEERKQYVKIEVQEGDTLWELADRIKGGKTADKHKFIEWVADKNNLPTSVIKPGDVLILPVAKQHSDQYQLAVVELEHHHHHH”: the protein production result was “not failed”. For “MSEAEAKLWQHLRAGRLNGYKFRRQQPMGNYIVDFMCVTPKLIVEADGGQHAEQAVYDHARTVYLNSLGFTVLRFWNHEILQQTNDVLAEILRVLQELEKQ”, the protein production result was “not failed”. Consider “MTEKKIDFKKEEKKFYAPKRKPERIFVPEMNFLMVDGKGDPDGEEYQKAVQSLYAIAYTIKMSKMGETRLDGYSDFVVPPLEGFWWSEGKFDLKDRDAWLWTSILRQPDFVTEEVLEWAKEVARKKKPDVDTSRVKLVRFEEGECVQMMHVGPFSEEVHTVAEMHQFMETEGLRNDTGAIRKHHEIYLSDPRKANPEKMKTILRLPVS”, for which the protein production result is on record as “not failed”. Take “MTFVLNTFGRLQLVDGQGSLVAFPEKGLLLLVYLLTTGEGSADRTSLARFLWGDADRDVALSTLRKLISRIKARQTELGINILSSQGNMVSLDRESLSSDLLLSETDEAVASFSLLKHLVKLLNQPFLGPVHCHSREFQHWLAEREKSHIDLLANTLKAVSQRAQSRTESELLRKAAIILFRTEPKDPDTLQLLIEIFKAEEEVESLRNHFEQRRISISRGIAVRTASDGGDTKPVLPALAPSREKHATAVSLEPEDISIAIPRLVLLPPRNQSIHPQAGFLAASLVEDITIGFCAFNSLQVIAPYSAVQIGHHMETQKAFFERHHVNYILDTRISNAGDDVTLFAQLIFFDQNQIVWAERFSLDHRDLVKDRRTVSRRIALSISSEIERHEALREDLNPAAYHRYLVGRRHLARLTLPNLRRARKEMKAALSVSPDFAPALSSMARTYSKEWLLTARGDIDLLKTAETLATQATETRPDFADGYREFGVAKLLQGAFDQSAEAMEVAESLAPHYADVIADYADTLVHCSLPAIALRKIERAIELNPLSPDTYFWTAAGANYALGEFEASLDYIGQMADASLADRLAAANWAMLGHQDKARTFVRRFREVNPDFDVDKWLSAVPSKEQWHKDLYREGLKKAGF”: the protein production entry is given as “failed”. Regarding “MQAVLNFPDLSPELFSISLFGMEFALRWYALAYIAGIVIAWRLAVLATRRAALWPANTPPMAPARIEDLLTWIILGVILGGRLGFVLFYQPAYYLANPTEILMVWQGGMAFHGGLLGVVIAAWLYSLRHNIPKLSLADLITHTVAPGLLLGRLANFINAELWGRPSDLPWAVIFPGPAAQACPGVVGLCARHPSQLYEAALEGLLLGTLLLWLVWRRGALKRPGLITGVFLAGYGLSRFVVEFFRQPDAQFVTPGNPLGLAWQVGEYGLTMGQLLSLPMIALGLWFVLRARAVPA”, the protein production entry was “failed”. As for “MNTRNFSLPQLQNLPIEEARIVADALAVHATSRQIDSAASKLAALAEAGLKGDRQAYAAYQQLLYVLSLSDDVATAQTRRWLARAIYRVEERFMPAADLSRALSEEDFQKRLEQEIAAQSRERHPMSQYVFSGSASRAQLQVFLRHQWFRTFRLYRDAADLLVNLTDVDEAAALARYLYGELGEEDEKGSHPRLLAKLLEAIGLEADFQAVSTMPEEIAYLNNRARAFRHAEVGWGLAVFYITELVVPGNHEKLYRALLQAGLSEDQAEYYKVHISLVPPRAKREWQLIARRIPDVQFQNAFLTSLSQHFRVERAYYDAIWEEMQSVK”, the protein production result is listed as “not failed”. As to “MLVTVMIPTYNQKDYVGSAIESALAQTYADLEIVVADDASPDPGVAKVLERYRNHPKVRLYRNAQNLGRVANYRKTLYERARGEWVINLDGDDYLVDPCFVEDAVGVVKKHPDIVAVLGGRKVLQASGTHKVQQANVCLSGRVAPRDVFSGILDGTLFPYHNATLYSRTHALAIGFYEQDIVSSDLESFLRLFARGAVGVLPRIVGVWREHSGNTSGTMAFSDYLANIQVFESVMHTAEEPDIAVKSSFLKSWSSRYAYSKGKDYAYRLLKDSDSPSLCFGYLKRLSKVSSVAALRILIQPKVLFNLLARALPSQISRCFR”, the protein production result is “failed”. Turning to “MPIDQEKLAKLQKLSANNKVGGTRRKLNKKAGSSAGANKDDTKLQSQLAKLHAVTIDNVAEANFFKDDGKVMHFNKVGVQVAAQHNTSVFYGLPQEKNLQDLFPGIISQLGPEAIQALSQLAAQMEKHEAKAPADAEKKDEAIPELVEGQTFDADVE”, the protein production result is “failed”. On to “MDKFYHFLTLTGIGLYWFLVAGVTLRVVLKRRAVSVSLAWLMIIYILPVLGVACYFLFGELNLGRKRAERAKEMFTPFAKWFSQLNDCHAHMPETMGRHIYRIDELCNNRLGLPALSGNTLSLQQSPDEILHSIIEDIENAKTSIRMVFYIWHPGGLADSVASALIQASKRGVDVKLLLDSAGSPRFFRSPWYKMMKDSGIEVIQALEVKMWRMFLRRLDLRQHRKIIVIDDEIAYTGSMNLVDPAYFKQSSGVGRWIDIMVRVTGPTVNVLSAIHCWDWEVETGERYLPKLPECKIDNSKYQHPIQVVPSGPGMPEYLIYQVLTLAINQANRSVRITTPYFVPNTDLLETLKMTAQRGIDVELIIPHKNDSLMVQWASRAFYSELLAAGVKIYEFYGGLLHTKSVVIDDQFCLVGTVNMDMRSLWLNFEVTLAVDDEEFTKQLSWLQDGYIKQSHPVVLDEWEKRSLYSRFLERVFYLFNPLL”, for which the protein production result is listed as “failed”. With “METTQKDELSSFLSVLPPVDFCCVYGSTLHPNNQDKSKMVDYILGVSDPIKWHSANLKMNSDHYASWMVHLGGARLITNVADKVGVGVHFNPFVNWNDRKLKYGVVRMHDLVQDILDWKRFYLSGRLQKPVHMLVDNLDIEDVNSVNKRAAISAALLLLPSKFTEEDLYAKICSLSYMGDLRMFFAEDTNKVNKIVKGQFDLFQSMYKPFLEECETKNLLRFSSAEASHTKLVQDSSLSATRSLVSSLPASVRSQMGKSLGEKKFVSETGRVMGEVCISSREEAAKCMEKVMRRRVMVSSGRQAVSGFLAAGAINATMYLSQKMRKAWNSRA”, the protein production entry is recorded as “failed”. In the case of “MFTGMIRLVTLGTFAAALLSSPALAAGGGGGGGGGGSISSTDPYAGAYSDQKPQPTYPKRPGTKATQKGKKQGNQSSIGDPAFAAGYRVAYDTIYERNDYATAIAQLKSLGHDDHPNVANLIGYSYRKLGDYEQSQVWYERALRADPNHVQTWQYYGLWQLERGNREQALYHLGRIASICGTDCDEYRSLAAALDKPSGTALVY”, the protein production entry was “failed”.

For “MTIQLTVPTIACEACAEAVTKAVQNEDAQATVQVDLTSKKVTITSALGEEQLRTAIASAGHEVE”, the protein production entry is reported as “not failed”. For “MNLESKWLEDFSALAATRSFSQAAERRFVTQPAFSRRIRSLEAALGLVLVNRSRTPVELTAAGQLFLVTARTVVEQLGEVVRHLHHLEGGQGEVMQVAAAHSLALGFFPRWIAQLRNEGLNIATRLVATNVGDAVHALREGGCDLMLAFYDPDAALQMDAEIFPSLHLGHTEMLPVCAADAEGRPLFDMEGEASVPLLAYSTGAFLGRSVNLLLRQRNLRFTTVYETAMADSLKSMALEGLGIAWVPQLSVRAELARGELVVCGGPQWHVPLEIRLYRCALVRKANVRLLWRKLESAAPPESL” the value was “failed”. “SWNKKNEEKEDFGIIVILWKQVTVKEDGKVPLEPFLTAAKEVLRVVDAFGSGFRIVKNDIAGNIKKLYRANQTVHAETLQELIIAENSPDGLATVALLWLKRAFQFIASFLRRLVVTDKSLEQCVTEAYNCTLRPCHSAVIQKVFWGGVKLAPSRERFYRKLHPDLNIAKAKIEEFLIELHDPLCCIVQFFFQRELEDQCWGDEVYQRKDSSEWLKVSCEQDSV”: the protein production entry is on record as “not failed”. “MEEWSASEACLFEEALEKYGKDFNDIRQDFLPWKSLTSIIEYYYMWKTTDRYVQQKR”: the protein production result is given as “not failed”. Regarding “DNAMEEEIQSIMKIERDLFLAIKNKEFVIHYQPKVDSSTGNIIGSEALIRWLHPSLGMVGPNKFIPIAEKNGLINNIGRWLIQEVFITINKWISEGINVLPVSINLSRVELYKNDLVDFFKLMFNTYNIPKELIELEITETTALRDVKFISERLYEIKSLGMNISLDDFGVGNSNFINLKGIPLDIIKIDRSLILDIVTNTKTKFMVKAIVNLSHDLNVTVICEGVEDMHQVKVLSELGCNFIQGYVFFKP”, the protein production entry is “failed”. In the case of “MKILKKIFQVIVKIINHCVPVDSRSLYFIPHPNCRTDKYDIINYSSDNVLVLLNYLLKKDSAEYYKIYVEIYDSSRISEYQEYIYGINPNIRCTFLCACVGRFFFNKVSFKDMLYAFFCFCRASKCFTATFYYDFSFKKRSQQIICLGYYTPFKDDYHMGDHSYDKFRNTTCNSFDYSIATSCLSARIISIDCGISYDKFKVLGFPRNDLLISKNNCNVIKREISKFAGYDVTKYIVYTPTFRDYETVTEGNLRSILGYVDCDLLKLSKILLKFNAALILKLHPLQNKTVLKKDLPKGILVFEQTYKYGLYDLLSFSDGMITDYTSTYFDFLLVNKPVIFNFYDIEEYRRVRGFSFEPIEFFCAGDIVYNYNELIDAVMGLLAGKDIHAEHRRHISLLMNQFQDDNSTKRICDIFLNEILEHHHHHH”, the protein production entry is on record as “failed”.

In the case of “MASNEAGRALPKFGEWDVNDPATADGFTVIFSKAGEDKKTGRSSTKTNSQRKQDGDKPAVKKWLCFTFA”, the protein production entry is given as “not failed”. For the sequence “MSPPRDLPTLGRNTIPIPEFEMTRRNSKPGVRLLSVLVALGMAAPALAQAVTEPVTQPAIYPTPVSITLDGATIALGRSVVLVVAPGADKATVALVRSILSSAGVTKMATATRLPATLDRPHIVLGTGDAAVVRDALARSKARQDTHKEGYTLASVALDGGSLITLAGHDDDGLFHAAQTLRQLVERPAIPTLTIHDYPAMPIRGTIEGFYGAPWSMSDRSKHIDFLARTKANTFIYSPKDDPYARDRWRAPYPKATLKALGQLAATAKRNHVDFVYAISPGPTVCFSDPADAKALLRKFDAFRALGVRSFYVALDDIEYTKWNCERDKTAFGESGAQAAGIAQSHLLNLVQADLVARHDATSELIMVPTEYYDAKESPYKEALRKHLDPKIVVQWTGTDVVPPAISIPDARAATKAFGRKTLLWDNYPVNDFETSAGRLLMAPYARREAGLSAELSGIVSNPMNQEVPSRVAVMGLTAFAWNDKDYDAQRTWHAAARDLAGGDARVTAALLIFFDTQHLAPTFGSQPWQEQAPRLKAVLDHVREAIALGDAAARTQAIAELARTADEMAAAPQIIRDSVADKGFAKQSRPWLEAMEVWGGALQKTAAGLDAANRGDTQAPALFAEAAAHAAVAAVVPSIPGATRFDGPVKIADGVLDRFIAQAPRLIAYRVPAVADSAAAK”, the protein production result is recorded as “failed”.

With “IRVAAFNVLNYDNGAEKGFPTDRGATTATEFSRQHQKIVTALKAINADVYGLMEIANNGYDEKSAIAYLTKSLGPDWKYITPPNMNRLGSDVIAVGILYNAKRVKPVNAAVVFDDQSQKNRVTMAQTFQPIHGGKFFTVIPNHLKSKGSCPEDTASTDADQLDGQGCWNPTRVKAVEQLIQWAAKNPTRVQQPNILFLGDMNSYAKEDPILAFEKANYKVLLNDEKIGQGKQAYSYVFGVSSNALGYGGAGNIDHAIADSNLYRFVKRAFVWHINADEPTALDYNEEYKTDEQKTLFYADDAYRSSDHDPVIVDLDLKESAQQGGVLNFIQQLLDWIAQLFTRT”, the protein production result is listed as “failed”.
